# Measured values taken from patent US20130095122A1, “Peptides or Antibodies Which Bind to Melanoma Inhibitory Activity (MIA) Protein” (priority 2010, published 2013).
# Where a chain is given by its changes, count along the chain named. In names and notes the source's numbering stands.
# T1: MIA protein dimer (Homo sapiens, UniProt Q16674)
# T1 construct: made in house; host or cells: cell-free Rapid Translation System RTS 500 E. coli HY Disulfite Kit (Roche)
# T1 sequence (Q16674 25-131): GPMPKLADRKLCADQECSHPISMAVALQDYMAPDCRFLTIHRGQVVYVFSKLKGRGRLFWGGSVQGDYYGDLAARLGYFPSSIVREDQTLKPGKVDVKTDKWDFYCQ
# B1: peptide JPT79 (peptide)
# peptide: FHWRYPDPDPGQ
# B2: peptide JPT4 (peptide)
# peptide: FHWRYPGPGPGQ
# B3: peptide JPT62 (peptide)
# peptide: FHWRYPLPLPGQHHHHHH
# B4: peptide JPT55 (peptide)
# peptide: FHWH
# notes: also called FHWH
# B5: peptide JPT26 (peptide)
# peptide: WHWRYP
# notes: also called WHWRYP
# B6: peptide AR71 (Ac-FHWRYPLPLPGQ-NH2) (peptide)
# peptide: Ac-FHWRYPLPLPGQ-NH2
# notes: Dodecapeptide previously identified by phage display
# B7: melanoma inhibitory activity (MIA) protein, recombinant human wild type (other)
# chain: T1 sequence (Q16674 25-131)
# notes: In the HTFP assay one copy is labelled with Ru(bpy)3 (in solution) and the other is a biotin conjugate immobilised on streptavidin plates; 15N-enriched MIA was used for NMR; also called wt MIA; MIA wt (RTS)
# B8: MIA mutant T89P (other)
# chain: T1 sequence (Q16674 25-131) with T89P
# notes: Expressed in the RTS in vitro transcription/translation system
# B9: MIA mutant K91N (other)
# chain: T1 sequence (Q16674 25-131) with K91N
# notes: as for B8
# B10: MIA mutant D29G/Y69H (other)
# chain: T1 sequence (Q16674 25-131) with D29G, Y69H
# notes: as for B8
# B11: MIA mutant V46F/S81P (other)
# chain: T1 sequence (Q16674 25-131) with V46F, S81P
# notes: as for B8
# B12: MIA mutant G61R (other)
# chain: T1 sequence (Q16674 25-131) with G61R
# notes: Expressed in the RTS in vitro transcription/translation system, unpurified
# B13: peptide JPT61 (peptide)
# peptide: HHHHHHFHWRYPLPLPGQ
# Columns and labels:
# [1] = tested on: hMSC; experiment: Hanging drop assay (chondrogenic differentiation); type: cell-based, human; settings: after day 4 (FIG. 9)
# Protocol: To generate spheroids the hMSC were detached from the culture flask by adding 1 ml Trypsin-EDTA (Provitro). After incubation for a 5 minutes 1 ml neutralizing solution (Provitro) and 8 ml HMSC proliferation medium were added. After centrifugation for 4 min at 1200 rpm and resuspension in Incomplete Chondrogenesis Induction Medium (DMEM with glucose (4.5 g/L), penicillin (400 units/ml) streptomycin (50 μg/ml), L-glutamine (300 μg/ml), sodium pyruvate (1 mM), L-ascorbic acid 2-phosphate (0.17 mM), L-proline ([…]), dexamethasone (1 μM) and ITS premix (BD Biosciences, Heidelberg, Germany)), the cells were counted and adjusted to 50,000 cells/ml. 20% methocel (6 g methyl cellulose (Sigma-Aldrich, Munich, Germany), 250 ml basal medium)) was added and 25 μl of the cells suspension were dropped onto the cover of a 9 mm petri dish. For each experimental condition 10 drops were used. The petri dish was filled with PBS and the cover dish was inverted and incubated for 72 h under a humidified atmosphere of 8% CO2 at 37° C. for 1, 2, 4 and 7 d followed by RNA isolation or alcian blue staining. For treatment, TGF-beta3 (10 ng/ml, Biomol, Hamburg, Germany) was added. At day 4 NA was extracted and analysed. The experiment was repeated 4 times.
# [2] = target: T1, MIA protein dimer; experiment: Western blot analysis of MIA dimer bands; type: biochemical; settings: western blotting, FIG. 6
# Protocol: (§1) Protein samples were denaturated at 70° C. for 10 min after addition of reducing and denaturing Roti-Load buffer (Roth, Karlsruhe, Germany) and subsequently separated on sodium dodecyl sulfate 12.75% polyacrylamid gels (SDS-PAGE) (Invitrogen, Groningen, The Netherlands). In the multimerization studies, MIA protein (1 μg) was incubated with AR71 (2.5 μg) overnight at RT before being treated as described above. After transferring the proteins onto a polyvinylidene fluoride (PVDF) membrane (BioRad, Richmond, Va., USA), the membrane was blocked using 3% BSA/PBS for 1 h at RT and incubated with a 1:150 dilution of primary polyclonal rabbit anti MIA antibody (Biogenes, Berlin, Germany) in 3% BSA/PBS overnight at 4° C. After washing in PBS the membrane was incubated with a 1:2000 dilution of an […] coupled secondary antibody (Chemikon, Hofheim, Germany) for 2 h at RT. Finally, after washing steps, immunoreactions were visualized by nitro blue tetrazolium/5-bromo-4-chloro-3-indolyl phosphate (NBT/BCIP) (Invitrogen, Karlsruhe, Germany) staining.
# [3] = tested on: Sox9 mRNA in human MSC; experiment: Micromass assay (chondrogenic differentiation induced by TGFβ3); type: cell-based; settings: after days 3 and 7 (FIG. 8)
# Protocol: For analysis of chondrogenesis human MSC differentiation was performed in high density culture. For this, 3×10^5 cells were seeded into each well of a six-well plate. Cells were cultured for the indicated period in induction medium including DMEM (PAA), high glucose (Sigma), 20% fetal calf serum (FCS, PAN Biotech GmbH), MEM Vitamins (Invitrogen), penicillin (100 U/ml), streptomycin (10 μg/ml) (both Sigma), Amphotericin B (2.5 μg/ml) (PAN Biotech GmbH), 0.1 μM dexamethasone, 1 mM sodium pyruvate, 0.17 mM ascorbic acid-2-phosphate, 0.35 mM proline (all Sigma), insulin (5 μg/ml), transferring (5 μg), selenious acid (5 ng) (ITS Premix, Becton Dickinson) and 10 ng/ml human TGF-β3 (R&D Systems). The medium was changed every second day. All groups were done in triplicate. Each experiment was repeated three times. Analysis was performed on RNA level.
# [4] = tested on: Mel Im melanoma cells; experiment: Boyden chamber invasion assay (MIA activity); type: cell-based, human; settings: MIA pre-incubated with peptide, Mel Im cells (FIG. 7)
# Protocol: Invasion assays were performed in Boyden Chambers containing polycarbonate filters with 8-μm pore size (Neuro Probe, Gaithersburg, Md., USA) essentially as described previously.^13 Filters were coated with matrigel, a commercially available reconstituted basement membrane (diluted 1:3 in H2O; BD Bioscience, Bradford, Mass., USA). The lower compartment was filled with fibroblast-conditioned medium used as a chemo attractant. Mel Im melanoma cells were harvested by trypsinization for 2 min at RT, resuspended in DMEM without FCS at a density 2.5×10^4 cells/mL, and placed in the upper compartment of the chamber. Except for the control experiment with untreated cells and experiments where cells were only treated with the respective peptide, MIA was added to the cell suspension at a final concentration of 200 ng/mL. Peptide AR71 (sequence: Ac-FHWRYPLPLPGQ-NH2) was used at a final concentration of 1 μM. MIA expressing murine B16 melanoma cells stably co-transfected with Sig-AR71-HisTag containing pCMX-PL1 vector^27 and an antibiotic resistance comprising plasmid (pCDNA3), and the respective mock control were also investigated for their ability to migrate. Therefore, cells were harvested by trypsinization for 2 min at RT, resuspended in DMEM without FCS at a density 2.5×10^4 cells/mL, and placed in the upper compartment of the chamber. After incubation at 37° C. for 4 h filters were removed. Cells adhering to the lower surface of the filter were fixed, stained, and counted. Experiments were carried out in triplicates and repeated at least three times.
# [5] = target: B7; experiment: HTFP competition assay
# [6] = target: B7; experiment: HTFP competition assay: displacement of MIA-Ru(bpy)3 from immobilised MIA-biotin
# Protocol: (§2) In the control lanes the FP signal of MIA-Ru(bpy)₃ was measured in a well coated with MIA-biotin compared to an uncoated well. The significant increase in FP in the well coated with MIA-biotin indicates binding of MIA-Ru(bpy)₃ to the immobilized MIA-biotin. The binding of MIA-inhibitory compound AR71 promotes dissociation of MIA dimers and displaces the surface-bound MIA-Ru(bpy)₃, as reflected by a decrease in fluorescence polarization signal. […] Pre-incubation of MIA with the respective inhibitory peptide results in a complete neutralization of the MIA effect.
# (§3) All measurements were performed at RT on a Polarstar Optima microplate reader (BMG Labtech, Offenburg, Germany). A 390-10 nm bandpass filter was used for excitation while a 520 nm longpass filter was used for the emission light. Even though the extinction coefficient is higher at longer wavelengths, the inventors chose a shorter excitation wavelength as this led to higher polarization values. MIA-Ru(bpy)₃ was prepared and tested for functional activity as described previously.¹⁴ A MIA-Ru(bpy)₃ concentration of 55 fM was used in all experiments. […] All measurements were performed in DPBS without calcium or magnesium (PAN Biotech GmbH, Aidenbach, Germany).
# [7] = target: the molecule itself; experiment: HTFP assay: MIA-Ru(bpy)3 on immobilised MIA-biotin, increase in FP signal
# Protocol: as §2, §3
# [8] = target: the molecule itself; experiment: Western blot, dimer band (FIG. 1B legend)
# Protocol: as §1, with “In” for “Protein samples were denaturated at 70° C. for 10 min after addition of reducing and denaturing Roti-Load buffer (Roth, Karlsruhe, Germany) and subsequently separated on sodium dodecyl sulfate 12.75% polyacrylamid gels (SDS-PAGE) (Invitrogen, Groningen, The Netherlands). In”
# (§4) Having identified the most likely positions of the dimerization interfaces, mutants of MIA were tested for their capability to form dimers by Western blot analysis (FIG. 1B). MIA mutants were expressed in an in vitro transcription/translation system. […] The sites of mutations not affecting functional activity (FIG. 1D, depicted by amino acid labels D29, S81 etc.) are located outside the dimerization regions, whereas G61R (FIG. 1D, depicted by G61) is buried in the dimerization cleft (depicted by the darker grey are in the left panel) in close proximity to the distal loop.
# [9] = target: the molecule itself; experiment: Western blot for dimer band, RTS-expressed mutant
# Protocol: as §1, with “In” for “Protein samples were denaturated at 70° C. for 10 min after addition of reducing and denaturing Roti-Load buffer (Roth, Karlsruhe, Germany) and subsequently separated on sodium dodecyl sulfate 12.75% polyacrylamid gels (SDS-PAGE) (Invitrogen, Groningen, The Netherlands). In”
# as §4
molecule,measurement,setting,value
FHWH (Peptide Sequence identified from HTFP assay screening) [JPT55],induction of Aggrecan during differentiation,[1],inhibit the induction
same,induction of Sox9 during differentiation,[1],inhibit the induction
same,induction of collagen type II during differentiation,[1],inhibit the induction
FHWRYPDPDPGQ (Peptide Sequence identified from HTFP assay screening) [JPT79],inhibition of dimerization of MIA,[2],efficiently inhibited
HHH (Peptide Sequence identified from HTFP assay screening) [JPT71],induction of Sox9 mRNA by TGFβ3,[3],inhibit the induction of Sox9 mRNA by TGFβ3 significantly
WHF (Peptide Sequence identified from HTFP assay screening) [JPT67],inhibition of MIA-activity (neutralization of the MIA effect on invasion),[4],inhibit MIA-activity
WWW (Peptide Sequence identified from HTFP assay screening) [JPT73],induction of Aggrecan during differentiation,[1],inhibit the induction
same,induction of Sox9 during differentiation,[1],inhibit the induction
same,induction of collagen type II during differentiation,[1],inhibit the induction
same,inhibition of MIA-activity (neutralization of the MIA effect on invasion),[4],inhibit MIA-activity
B1,binding result,[5],binds
B2,binding result,[5],binds
B3,binding result,[5],binds
B4,binding result,[5],binds
B5,binding result,[5],binds
B6,binding result,[6],binds
B7,binding result,[7],binds
B8,binding result,[8],binds
B9,binding result,[8],binds
B10,binding result,[8],binds
B11,binding result,[8],binds
B12,binding result,[9],no binding
B13,binding result,[5],binds
